The term Kd denotes the constant that tells how readily two partners part at equilibrium.

This is an account of results in publication PMC2981644 (Journal of molecular biology, 2010).

No end group written: not given here. Alexa 488 = Alexa Fluor 488 dye

To fix the notation:
B4: clathrin TD, N-terminal domain of the clathrin heavy chain (aa 1-363) (domain or fragment, UniProt P49951 1-363, looked up)
chain: MAQILPIRFQEHLQLQNLGINPANIGFSTLTMESDKFICIREKVGEQAQVVIIDMNDPSNPIRRPISADSAIMNPASKVIALKAGKTLQIFNIEMKSKMKAHTMTDDVTFWKWISLNTVALVTDNAVYHWSMEGESQPVKMFDRHSSLAGCQIINYRTDAKQKWLLLTGISAQQNRVVGAMQLYSVDRKVSQPIEGHAASFAQFKMEGNAEESTLFCFAVRGQAGGKLHIIEVGTPPTGNQPFPKKAVDVFFPPEAQNDFPVAMQISEKHDVVFLITKYGYIHLYDLETGTCIYMNRISGETIFVTAPHEATAGIIGVNRKGQVLSVCVEEENIIPYITNVLQNPDLALRMAVRNNLAGAEEL

For assay [1], the target named is T1, Clathrin heavy chain terminal domain (Rattus norvegicus, UniProt P11442).
T1 chain: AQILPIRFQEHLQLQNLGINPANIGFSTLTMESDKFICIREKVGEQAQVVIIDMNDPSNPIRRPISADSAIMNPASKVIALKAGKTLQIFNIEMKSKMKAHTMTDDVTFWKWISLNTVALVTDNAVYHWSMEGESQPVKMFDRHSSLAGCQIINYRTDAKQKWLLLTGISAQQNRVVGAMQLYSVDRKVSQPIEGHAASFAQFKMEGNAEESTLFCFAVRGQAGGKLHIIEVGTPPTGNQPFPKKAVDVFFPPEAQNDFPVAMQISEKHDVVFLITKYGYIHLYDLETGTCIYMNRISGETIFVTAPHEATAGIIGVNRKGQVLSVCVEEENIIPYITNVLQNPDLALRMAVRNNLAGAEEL
Put plainly: NMR.

Assay [2] deals with B4. Put plainly: AUC.
For assay [3], the target named is AP180 M5 (aa 623-680), wild type, middle segment of the AP180 C-terminal domain (UniProt Q05140-2 623-680). The assay can be described thus: NMR titration.
Assay [4] has as its target AP180 M5 site 1 (single-site AP180 M5, residues 667-668 mutated to alanines; binding site 2 mutated), Q05140. The assay can be described thus: NMR titration.
Assay [5] deals with AP180 M5 site 2 (single-site AP180 M5, residues 639-642 mutated to alanines; binding site 1 mutated), Q05140. The assay can be described thus: NMR titration.

B1: AP180 M5 fragment, binding site 1 (peptide)
chain: TAVDAFAAPSPASTASPAKA
With B1, binding in assay [1] was put at a Kd of 160 µM.

B2: AP180 M5 site 2 (residues 639-642 to alanines), fluorescently labelled for AUC (domain or fragment)
chain: {Alexa 488}-ASTASPAK(Alexa 488)AESSGVIDAAAAAFGSGASETQPAPQAVSSSSASADLLAGFGGSFMAPST
In assay [2], B2 registered a Kd of 253 ± 8 µM.

B3: AP180 M5 site 1 (residues 667-668 to alanines), fluorescently labelled for AUC (domain or fragment)
chain: {Alexa 488}-ASTASPAK(Alexa 488)AESSGVIDLFGDAFGSGASETQPAPQAVSSSSASADAAAGFGGSFMAPST
Turning to B3, binding in assay [2] was characterised by a dissociation constant (Kd) of 251 ± 3 µM.
For the molecule B4, in assay [3], the “KD of binding site 1” value stood at 160 ± 23 µM and the “KD of binding site 2” value turned out to be 224 ± 48 µM. Further, in assay [4], the dissociation constant Kd is 168 µM. Further, the Kd in assay [5] is 246 µM.

B5: Alexa488-AP180 M5 (aa 623-680), wild type, fluorescently labelled (domain or fragment)
chain: {Alexa 488}-ASTASPAK(Alexa 488)AESSGVIDLFGDAFGSGASETQPAPQAVSSSSASADLLAGFGGSFMAPST
In assay [2], B5 gave a Kd of 173 ± 11 µM.
